From paper PMC6885295, “Soluble Production, Characterization, and Structural Aesthetics of an Industrially Important Thermostable β-Glucosidase from Clostridium thermocellum in Escherichia coli” (BioMed Research International, 2019)

Test system: T1, OCc1ccccc1O[C@@H]1O[C@H](CO)[C@@H](O)[C@H](O)[C@H]1O
T1 construct: forward primer reads ATG GCA AAG ATA ACT TTC (N-terminus MAKITF, NcoI site may change residue 2)
Assay: DNS reducing-sugar assay, Lineweaver-Burk plot
Type: biochemical, Acetivibrio thermocellus
Conditions: 1.5 M Tris-Cl pH 7.0, 50 °C, 30 min, substrate range 2.5-20 mM

Q: For “BglA (Acetivibrio thermocellus ATCC 27405; S2A)”, which Km is on record?
A: Its Km is 19.83 mM.
